Reference: paper PMC11933459 (Nature Communications, 2025)

Legend:
cryo-EM structure [1] = biological target: the molecule itself; experiment: cryo-EM structure
cryo-EM structure [2] = biological target: the molecule itself; experiment: cryo-EM structure; remark: listed apart in the source

Row | Protein | stoichiometry N (cryo-EM structure [1]) | binding result (cryo-EM structure [2])
1 | Full-length human XPR1 (wild type), purified, tags removed (natural protein, UniProt Q9UBH6 1-696, looked up) MKFAEHLSAHITPEWRKQYIQYEAFKDMLYSAQDQAPSVEVTDEDTVKRYFAKFEEKFFQTCEKELAKINTFYSEKLAEAQRRFATLQNELQSSLDAQKESTGVTTLRQRRKPVFHLSHEERVQHRNIKDLKLAFSEFYLSLILLQNYQNLNFTGFRKILKKHDKILETSRGADWRVAHVEVAPFYTCKKINQLISETEAVVTNELEDGDRQKAMKRLRVPPLGAAQPAPAWTTFRVGLFCGIFIVLNITLVLAAVFKLETDRSIWPLIRIYRGGFLLIEFLFLLGINTYGWRQAGVNHVLIFELNPRSNLSHQHLFEIAGFLGILWCLSLLACFFAPISVIPTYVYPLALYGFMVFFLINPTKTFYYKSRFWLLKLLFRVFTAPFHKVGFADFWLADQLNSLSVILMDLEYMICFYSLELKWDESKGLLPNNSEESGICHKYTYGVRAIVQCIPAWLRFIQCLRRYRDTKRAFPHLVNAGKYSTTFFMVTFAALYSTHKERGHSDTMVFFYLWIVFYIISSCYTLIWDLKMDWGLFDKNAGENTFLREEIVYPQKAYYYCAIIEDVILRFAWTIQISITSTTLLPHSGDIIATVFAPLEVFRRFVWNFFRLENEHLNNCGEFRAVRDISVAPLNADDQTLLEQMMDQDDGVRNRQKNRSWKYNQSISLRRPRLASQSKARDTKVLIEDTDDEANT | 2 | 
2 | XPR1-E622A/F623A mutant (full-length human XPR1), purified, tags removed (natural protein, UniProt Q9UBH6 1-696, looked up) MKFAEHLSAHITPEWRKQYIQYEAFKDMLYSAQDQAPSVEVTDEDTVKRYFAKFEEKFFQTCEKELAKINTFYSEKLAEAQRRFATLQNELQSSLDAQKESTGVTTLRQRRKPVFHLSHEERVQHRNIKDLKLAFSEFYLSLILLQNYQNLNFTGFRKILKKHDKILETSRGADWRVAHVEVAPFYTCKKINQLISETEAVVTNELEDGDRQKAMKRLRVPPLGAAQPAPAWTTFRVGLFCGIFIVLNITLVLAAVFKLETDRSIWPLIRIYRGGFLLIEFLFLLGINTYGWRQAGVNHVLIFELNPRSNLSHQHLFEIAGFLGILWCLSLLACFFAPISVIPTYVYPLALYGFMVFFLINPTKTFYYKSRFWLLKLLFRVFTAPFHKVGFADFWLADQLNSLSVILMDLEYMICFYSLELKWDESKGLLPNNSEESGICHKYTYGVRAIVQCIPAWLRFIQCLRRYRDTKRAFPHLVNAGKYSTTFFMVTFAALYSTHKERGHSDTMVFFYLWIVFYIISSCYTLIWDLKMDWGLFDKNAGENTFLREEIVYPQKAYYYCAIIEDVILRFAWTIQISITSTTLLPHSGDIIATVFAPLEVFRRFVWNFFRLENEHLNNCGAARAVRDISVAPLNADDQTLLEQMMDQDDGVRNRQKNRSWKYNQSISLRRPRLASQSKARDTKVLIEDTDDEANT |  | binds
